The text below walks through data of patent US20170165338A1.

Some results are limits rather than exact numbers.

The first assay concerns the target HLA-A*02 (human). The assay is described as follows: UV-exchange b2m ELISA.
FLLPTGAEA displayed a peptide exchange yield of 20 to 49%.
The same measure, in the same setting: the figure for ILGDLSHLL is 50 to 75%; for LLNPVVEFV it is 50 to 75%; for VLYDRPLKI it is 50 to 75%.
The molecule ALLAFFPGL displayed a peptide exchange yield of 50 to 75%.
On the same count and under the same terms, next, SVLDSTAKV: 20 to 49%.
Same read-out and setting: next, GLAVPTPSV: 50 to 75%.
The same measure, in the same setting: next, TLTSLLAQA: 50 to 75%; RLQDILWFL: over 75%; ILGEVLAQL: 50 to 75%.
In turn, YLWATIQRI displayed a peptide exchange yield of 50 to 75%.
On the same count and under the same terms, next, VTSNSGILGV: 50 to 75%; AILAHLNTV: over 75%; KLQNIMMLL: 20 to 49%.
Same read-out and setting: next, ALLPRLHQL: over 75%; FISERVEVV: over 75%; KIIDFLSAL: 50 to 75%.
In turn, RLLGTEFQV yielded a peptide exchange yield of 50 to 75%.
Still for that read-out and setting: next, MMVGDLLEV: 50 to 75%.
In turn, ALLPELREV yielded a peptide exchange yield of 50 to 75%.
Same read-out and setting: the figure for ILNTHITEL is 50 to 75%; for YLMDDTVEI it is over 75%.
Same read-out and setting: next, FLDKVLVAA: 50 to 75%.
Still for that read-out and setting: the figure for SLLGGTFVGI is 50 to 75%.
Consider ILVEGISTV, for which the peptide exchange yield was 50 to 75%.
Still for that read-out and setting: next, FLFGGVLMTL: 20 to 49%.
Consider HLSTIIHEA, for which the peptide exchange yield was in the range of 50 to 75%.
Still for that read-out and setting: next, ALLAKILQI: 50 to 75%.
On the same count and under the same terms, the figure for MLAGIAITV is 50 to 75%; for ALHFSEDEI it is 20 to 49%.

Another assay deals with HLA-A*24 (human). The assay is described as follows: UV-exchange b2m ELISA.
Molecule RYFKGLVF yielded a peptide exchange yield of 50 to 75%.
Still for that read-out and setting: next, TYTTVPRVAF: over 75%.
On the same count and under the same terms, the figure for YFDKVVTL is 20 to 49%; for LYLKLWNLI it is 50 to 75%; for EYQENFLSF it is 50 to 75%.
VHIPEVYLI registered a peptide exchange yield of 50 to 75%.
As for IFIEVFSHF, the peptide exchange yield lay within 50 to 75%.
In turn, IFPQFLYQF displayed a peptide exchange yield of over 75%.
Still for that read-out and setting: the figure for IYQLDTASI is 50 to 75%; for EFGSLHLEFL it is under 20%.
On the same count and under the same terms, next, IYKVGAPTI: 50 to 75%.
Same read-out and setting: the figure for VFTSTARAF is 50 to 75%.
Take LYLDKATLI: the peptide exchange yield is 50 to 75%.
Same read-out and setting: the figure for TYTQDFNKF is 50 to 75%; for RYSTGLAGNLL it is 50 to 75%; for YYVYIMNHL it is 50 to 75%.
Same read-out and setting: the figure for MYDSYWRQF is over 75%.
Same read-out and setting: next, FYSRLLQKF: 50 to 75%.
Turning to VYRDETGELF, the peptide exchange yield fell in the range of 50 to 75%.
For the molecule VYPWLGALL, the peptide exchange yield was over 75%.
The same measure, in the same setting: next, RFHPTPLLL: over 75%; EYPLVINTL: 50 to 75%.
The same measure, in the same setting: next, WYVNGVNYF: 20 to 49%.
Still for that read-out and setting: the figure for KYIPYKYVI is 50 to 75%.
On to KYTSWYVAL, for which the peptide exchange yield is over 75%.
Same read-out and setting: the figure for VFKASKITF is 50 to 75%.
Still for that read-out and setting: the figure for QYSSVFKSL is over 75%.
Consider IFLDYEAGTLSF, for which the peptide exchange yield is over 75%.
Still for that read-out and setting: the figure for LYLDIINLF is over 75%; for IYTMIYRNL it is over 75%; for TYLRDQHFL it is over 75%.
Same read-out and setting: the figure for VFQNFPLLF is over 75%; for QYLENLEKL it is 50 to 75%.
On the same count and under the same terms, the figure for SYALLTYMI is over 75%; for YYLEVGKTLI it is over 75%.
In the case of FFPPTRQMGLLF, the peptide exchange yield is over 75%.
Molecule IYDDSFIRPVTF returned a peptide exchange yield of 50 to 75%.
On the same count and under the same terms, next, GFFIFNERF: 50 to 75%.
